Source: patent CN110964118A (UNIV CHINA PHARMA, dated 2020)

Tests used:
[1] = target: T1, CD24裸肽 (CD24 naked peptide, SPR analyte) (human, UniProt P25063 27-59, limits assumed); assay: SPR (Biacore X100), cG7-sTGFBR2 captured by anti-human IgG(Fc) on a CM5 chip, CD24 naked peptide as analyte, 25℃
T1 construct: also called 抗原CD24
T1 peptide (looked up): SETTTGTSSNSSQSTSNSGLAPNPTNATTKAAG

转化生长因子-β1 (TGF-β1) = 转化生长因子-β1 (TGF-β1) (human, UniProt P01137 279-390); assay: SPR (Biacore X100), cG7-sTGFBR2 captured by anti-human IgG(Fc) on a CM5 chip, TGF-β1 as analyte, 25℃
Sequence of 转化生长因子-β1 (TGF-β1) (P01137 279-390 limits assumed): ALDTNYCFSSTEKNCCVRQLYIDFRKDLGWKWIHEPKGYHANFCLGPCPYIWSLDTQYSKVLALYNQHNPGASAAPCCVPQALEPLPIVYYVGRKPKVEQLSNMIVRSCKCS

- Kd [1]: 0.122 nM
- koff [1]: 1.14e-05 s⁻¹
- kon [1]: 93700 M⁻¹ s⁻¹
- Kd (转化生长因子-β1 (TGF-β1)): 55.5 nM
- koff (转化生长因子-β1 (TGF-β1)): 0.0636 s⁻¹
- kon (转化生长因子-β1 (TGF-β1)): 1.15e+06 M⁻¹ s⁻¹
B1: 靶向CD24的双特异性融合抗体cG7-sTGFBR2 (anti-CD24 humanized chimeric antibody cG7 fused at the heavy chain C-terminus via Gly4Ser to the human TGFBR2 extracellular domain … (bispecific antibody, human IgG1, kappa)
heavy: not shown
light: DIVMTQTPLSLSVTIGQPASISCKSSQSLLHSDGKTYLNWLLQRPGQSPKRLIYLVSKLDSGVPDRFTGSGSGTDFTLKVSRVEAEDLGVYYCWQGAHFPYTFGGGTKLEIKVDTVAAPSVFIFPPSDEQLKSGTASVVCLLNNFYPREAKVQWKVDNALQSGNSQESVTEQDSKDSTYSLSSTLTLSKADYEKHKVYACEVTHQGLSSPVTKSFNRGEC
notes: also called 融合双特异性抗体cG7-sTGFBR2
